According to patent US20250270320A1 (EUTILEX, published 2025):
Numbering of substitutions follows the chain as printed.

Experiments:
[1] = target: T1, recombinant human PD-1-His protein (ECD) (human, UniProt Q15116 25-170); test: SPR, purified antibody, PD-1 antigen
T1 construct: extracellular domain; Used as ELISA coat and SPR partner; also called rhprotein; antigen; not shown: His tag

[2] = target: T1, recombinant human PD-1-His protein (ECD); test: SPR; number in the sensorgram panel without name or unit, taken as KD in M because 9.655e-9 stands for 9.7 nM in FIG 9d
[3] = target: T2, human PD-1 expressed on cells (human, UniProt Q15116 25-288); test: flow cytometry on activated hCD8 T cells from human blood, 2nd-hIgG-PE detection; 2nd-hIgG-PE alone 1.73
T2 construct: whole, on cells; also called hPD-1; 293 cell line stably expressing human PD-1
T2 sequence (Q15116 25-288): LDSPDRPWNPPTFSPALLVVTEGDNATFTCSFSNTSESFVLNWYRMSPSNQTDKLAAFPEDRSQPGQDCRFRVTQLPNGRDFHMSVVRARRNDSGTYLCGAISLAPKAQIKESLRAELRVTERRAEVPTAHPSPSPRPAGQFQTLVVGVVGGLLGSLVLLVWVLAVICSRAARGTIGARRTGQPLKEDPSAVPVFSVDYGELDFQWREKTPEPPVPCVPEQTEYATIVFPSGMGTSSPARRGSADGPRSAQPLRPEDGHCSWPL

[4] = target: T2, human PD-1 expressed on cells; test: flow cytometry on hPD-1/293 cells, 2nd-hIgG-PE detection; Ctl 2nd-hIgG 0.17, cell only 0.03
Text: (§1) In addition, each purified humanized antibody was bound to 293 cells expressing human PD-1 and analyzed by flow cytometry.

[5] = target: T2, human PD-1 expressed on cells; test: flow cytometry on cells overexpressing hPD-1
[6] = target: T1, recombinant human PD-1-His protein (ECD); test: Q-ELISA of purified antibody on recombinant human PD-1-His, drawn table
Procedure: For ELISA, the recombinant human PD-1-His protein was O/N coated on a 96-well ELISA plate at 4° C., and blocked with 5% non-fat skim milk at RT for 1 hr. […]

[7] = target: T1, recombinant human PD-1-His protein (ECD); test: SPR
mouse PD-1 antigen = target: T3, mouse PD-1 antigen (mouse, UniProt Q02242 25-167, limits assumed); test: ELISA on the PD-1 antigen of the species, antibody 500 to 3.90625 ng in 1/2 steps
T3 construct: ELISA antigen
T3 sequence (looked up): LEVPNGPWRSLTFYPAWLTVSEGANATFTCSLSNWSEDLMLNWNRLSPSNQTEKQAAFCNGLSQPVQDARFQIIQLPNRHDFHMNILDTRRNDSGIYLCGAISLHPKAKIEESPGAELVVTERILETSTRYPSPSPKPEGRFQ

[8] = target: T1, recombinant human PD-1-His protein (ECD); test: SPR, drawn table; the column heads print no unit, units as in the table of FIG 7b
[9] = target: T2, human PD-1 expressed on cells; test: cell-based or functional assay
[10] = target: T1, recombinant human PD-1-His protein (ECD); test: SPR, drawn table; no unit in the KD column, the Affinity column gives 9.7 nM (the text prints only 9.7 nM)
[11] = target: T1, recombinant human PD-1-His protein (ECD); test: SPR, drawn table; no unit in the KD column, the Affinity column gives 5.8 nM (the text prints only 5.8 nM)
[12] = target: T1, recombinant human PD-1-His protein (ECD); test: ELISA on coated recombinant human PD-1-His protein
Procedure: For ELISA, the recombinant human PD-1-His protein was O/N coated on a 96-well ELISA plate at 4° C., and blocked with 5% non-fat skim milk at RT for 1 hr. The antibody was treated with ½ serial dilution of each hybridoma culture medium from 100 ul at RT for 2 hr, and detected by anti-mIgG-HRP.
as §1

T1 sequence (Q15116 25-170): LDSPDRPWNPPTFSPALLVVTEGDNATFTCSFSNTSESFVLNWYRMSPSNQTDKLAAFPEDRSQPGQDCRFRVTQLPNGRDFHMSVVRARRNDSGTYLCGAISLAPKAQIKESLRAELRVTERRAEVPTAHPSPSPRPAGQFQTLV

B1: humanized antibody 7C5 (antibody, V domains shown)
VH: EVQLVESGGGLVKPGGSLRLSCAASGFTFSSFGMSWVRQAPGKGLELVATIYSNGDYTYYPDSVKGRFTVSRDNAKNSLYLQMNSLRAEDTAVYYCARYYGNYGGYFDYWGQGTLVTVSS
VL: AIQMTQSPSSLSASVGDRVTITCKASQSVSNDVAWYQQKPGKAPKLLIYYASNRYTGVPSRFSGSGSGTDFTLTISSLQPEDFATYYCQQDYSSPPTFGGGTKVEIK
notes: Humanized antibody
[1]
  Kd: 57.2 nM
  koff: 0.00492 s⁻¹
  kon: 86000 M⁻¹ s⁻¹
[2]
  Kd: 211 nM
[3]
  percent of cells in the positive quadrant: 6.39%
[4]
  percent of cells in the positive quadrant: 95.3%
[5]
  percent of cells in the positive quadrant: 96.4%
[6]
  OD=405, row 1 of 8 (1/2 serial dilution from 500ng): 3.42
  OD=405, row 2 of 8 (1/2 serial dilution from 500ng): 3.39
  OD=405, row 3 of 8 (1/2 serial dilution from 500ng): 3.42
  OD=405, row 4 of 8 (1/2 serial dilution from 500ng): 3.34
  OD=405, row 5 of 8 (1/2 serial dilution from 500ng): 3.22
  OD=405, row 6 of 8 (1/2 serial dilution from 500ng): 2.74
  OD=405, row 7 of 8 (1/2 serial dilution from 500ng): 1.96
  OD=405, row 8 of 8 (1/2 serial dilution from 500ng): 1.16

B2: 7C5-T15-01 (antibody, human IgG4, V domains shown)
VH: B1 VH
VL: B1 VL with S30W, N31D, V33L, A34T
[7]
  Kd: 9.7 nM
Mouse PD-1 antigen
  binding result: no binding (tested: 500 ng)
[3]
  percent of cells in the positive quadrant: 20.3%
[8]
  koff: 0.000632 s⁻¹
  kon: 65500 M⁻¹ s⁻¹
[9]
  EC50 (read off the curve); PD-1/PD-L1 Blockade Bioassay, luciferase RAU: ~0.7 µg/mL
[10]
  Kd: 9.65 nM
[5]
  percent of cells in the positive quadrant: 97.3%

B3: 2B3W-T14-05 (antibody, human IgG4, V domains shown)
VH: EVQLVESGGGLVQPGGSLRLSCAASGFVFSNYDMSWVRQAPGKGLEWVAYITIGGGTTYYPDTVKGRFTISRDNAKNSLYLQMNSLRAEDTAVYYCARWRYDPLFAMDYWGQGTTVTVSS
VL: DIVLTQTPLSLSVTPGQPASISCRASESVTDYGISFMNWFLQKPGQPPQLLIYAASNQGSGVPDRFSGSGSGTDFTLKISRVEAEDVGVYYCQQSKEVPWTFGQGTKVEIK
notes: also called EU135-T14.05
[7]
  Kd: 5.8 nM
[11]
  Kd: 5.79 nM
Mouse PD-1 antigen
  binding result: no binding (tested: 500 ng)
[3]
  percent of cells in the positive quadrant: 17%
[8]
  koff: 0.000508 s⁻¹
  kon: 87800 M⁻¹ s⁻¹
[9]
  EC50 (read off the curve); PD-1/PD-L1 Blockade Bioassay, luciferase RAU: ~0.8 µg/mL

B4: humanized antibody 2B3R (antibody, V domains shown)
VH: B3 VH with W99R, R100V, F105Y
VL: B3 VL with T30D, D31N
notes: Humanized antibody
[12]
  binding result: no binding
